In publication PMC2063913 (The Journal of Cell Biology, 2006):
Several values for one entry are separate records, joined by “and”; a condition that tells them apart may be missing. Identical values can stand only once. Like-named read-outs stand apart in the source and are kept apart here. One block for each binder: values may come before it.

B1: yeast centrin (Cdc31p) (natural protein, S. cerevisiae)
chain: MSKNRSSLQSGPLNSELLEEQKQEIYEAFSLFDMNNDGFLDYHELKVAMKALGFELPKREILDLIDEYDSEGRHLMKYDDFYIVMGEKILKRDPLDEIKRAFQLFDDDHTGKISIKNLRRVAKELGETLTDEELRAMIEEFDLDGDGEINENEFIAICTDS

Key:
[1] = target: T1, Sfi1p fragment K246-E677 (15-repeat construct) (S. cerevisiae, UniProt Q12369 246-677); test: native MS
T1 sequence (looked up): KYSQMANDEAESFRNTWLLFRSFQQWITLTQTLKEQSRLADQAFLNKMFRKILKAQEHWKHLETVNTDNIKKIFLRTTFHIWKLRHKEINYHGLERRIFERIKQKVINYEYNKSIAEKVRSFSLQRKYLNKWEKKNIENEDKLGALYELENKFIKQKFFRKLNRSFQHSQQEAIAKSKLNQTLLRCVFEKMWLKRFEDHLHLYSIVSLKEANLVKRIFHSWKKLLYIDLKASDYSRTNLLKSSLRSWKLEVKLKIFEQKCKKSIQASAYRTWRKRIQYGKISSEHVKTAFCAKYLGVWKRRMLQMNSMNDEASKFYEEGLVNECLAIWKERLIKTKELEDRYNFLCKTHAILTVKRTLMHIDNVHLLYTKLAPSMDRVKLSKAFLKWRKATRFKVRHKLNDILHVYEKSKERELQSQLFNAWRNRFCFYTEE

yeast centrin (Cdc31p) [2] = target: B1; test: crystal structure
yeast centrin (Cdc31p) [3] = target: B1; test: crystal structure; remark: listed apart in the source

Binder: B1
stoichiometry N [1]: 15 and 14

binding result (yeast centrin (Cdc31p) [2]): binds
B2: Sfi1p fragment K643-E710 (two repeats; crystal 1 construct) (domain or fragment, S. cerevisiae, UniProt Q12369 643-710, looked up)
chain: KLNDILHVYEKSKERELQSQLFNAWRNRFCFYTEECNIQAISKRNYQLEKMVLKKFRERLLEIVKSEE

binding result (yeast centrin (Cdc31p) [3]): binds
B3: Sfi1p fragment N218-H306 (three repeats; crystal 2 construct) (domain or fragment, S. cerevisiae, UniProt Q12369 218-306, looked up)
chain: NEEANRFANQAKLRVQEAVFYIWSDKTLKYSQMANDEAESFRNTWLLFRSFQQWITLTQTLKEQSRLADQAFLNKMFRKILKAQEHWKH
